B1: BMPRII extracellular domain (ECD), wild type [human] / BMP10 growth factor (GF)-domain from Pro:BMP10 made in HEK EBNA cells [human] (parent complex)
chain 1: SQNQERLCAFKDPYQQDLGIGESRISHENGTILCSKGSTCYGLWEKSKGDINLVKQGCWSHIGDPQECHYEECVVTTTPPSIQNGTYRFCCCSTDLCNVNFTENFPPPDTTPLSPPHSFNRDET
chain 2: NAKGNYCKRTPLYIDFKEIGWDSWIIAPPGYEAYECRGVCNYPLAEHLTPTKHAIIQALVHLKNSQKASKACCVPTKLEPISILYLDKGVVTYKFKYEGMAVSECGCR

The variants in the first test derive from B1. Briefly: SPR (Biacore); BMP10 immobilised on a CM5 Biacore chip; parent: 0.161. Background: Surface plasmon resonance follows binding to a sensor surface in real time, without labels.
On to chain 1 E72K, for which the off-rate constant (koff) came out at 0.158 s⁻¹.

Take chain 1 G63W: the koff was 0.433 s⁻¹.

For the variant chain 1 G63E, the koff came to 0.609 s⁻¹.

As for chain 1 G63A, the koff stood at 0.331 s⁻¹.

Turning to chain 1 S81P, the koff was 0.0423 s⁻¹.

With chain 1 Q66H, the koff is 0.147 s⁻¹.

In a further test the parent is B1. Briefly: SPR (Biacore); BMP10 immobilised on a CM5 Biacore chip; parent: 1.35e+05.
In the case of chain 1 E72K, the kon turned out to be 148000 M⁻¹ s⁻¹.

For chain 1 G63W, the kon amounted to 1830 M⁻¹ s⁻¹.

With chain 1 G63E, the kon is 3980 M⁻¹ s⁻¹.

chain 1 G63A: the on-rate constant (kon) was found to be 104000 M⁻¹ s⁻¹.

Consider chain 1 S81P, for which the kon came out at 129000 M⁻¹ s⁻¹.

As for chain 1 Q66H, the on-rate constant (kon) was 120000 M⁻¹ s⁻¹.

In the next test the parent is B1. Nature of the test: SPR (Biacore); BMP10 immobilised on a CM5 Biacore chip; parent: 1.19e+03 nM.
With chain 1 E72K, the Kd was 1070 nM.

Take chain 1 G63W: the equilibrium dissociation constant (Kd) was 237000 nM.

As to chain 1 G63E, the Kd stood at 153000 nM.

chain 1 G63A: the dissociation constant Kd was 3190 nM.

Turning to chain 1 S81P, the equilibrium dissociation constant (Kd) came out at 328 nM.

On to chain 1 Q66H, for which the Kd was 1220 nM.

As a reminder, the koff is the first-order rate constant of dissociation. As usually defined, the kon is the second-order rate constant of association. Broadly, the Kd is the concentration at which binding is half-saturated.

The values above are taken from publication PMC9064986 (2022).
